Experimental data from the supplement of paper PMC11811203.

B1: THAP1; numbered along this chain (parent)
chain: MVQSCSAYGCKNRYDKDKPVSFHKFPLTRPSLCKEWEAAVRRKNFKPTKYSSICSEHFTPDCFKRECNNKLLKENAVPTIFLCTEPHDKKEDLLEPQEQLPPPPLPPPVSQVDAAIGLLMPPLQTPVNLSVFCDHNYTVEDTMHQRKRIHQLEQQVEKLRKKLKTAQQRCRRQERQLEKLKEVVHFQKEKDDVSERGYVILPNDYFEIVEVPA

Variants of: B1
Experiment: THAP1 transcriptional activity (GFP+/GFP- enrichment relative to wild-type constructs) (ratio to WT); higher = more THAP1 activity (PSMB5 reporter activation)
Conditions: with PSMB5 promoter-GFP reporter
Description: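 Deep mutational scan of human THAP1. Site-saturation single amino acid variant library (residues 2-213) was expressed by lentivirus at MOI ~0.3 in THAP1-knockout HEK-293T cells carrying an endogenous PSMB5 promoter-GFP knock-in reporter. Five days post-transduction, BFP+ cells were FACS-sorted into GFP dim and GFP bright populations and variants were counted by Illumina sequencing. Activity is the GFP-bright/GFP-dim read fold change, mean of 2 replicates, divided by the mean fold change of wild-type (synonymous) constructs in the same screen pool; WT = 1.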

Question: With MVQICSAYGCKNRYDKDKPVSFHKFPLTRPSLCKEWEAAVRRKNFKPTKYSSICSEHFTPDCFKRECNNKLLKENAVPTIFLCTEPHDKKEDLLEPQEQLPPPPLPPPVSQVDAAIGLLMPPLQTPVNLSVFCDHNYTVEDTMHQRKRIHQLEQQVEKLRKKLKTAQQRCRRQERQLEKLKEVVHFQKEKDDVSERGYVILPNDYFEIVEVPA [S4I] as the variant, how does the THAP1 transcriptional activity read?
Answer: 0.182

Question: How did the THAP1 transcriptional activity turn out when MVQQCSAYGCKNRYDKDKPVSFHKFPLTRPSLCKEWEAAVRRKNFKPTKYSSICSEHFTPDCFKRECNNKLLKENAVPTIFLCTEPHDKKEDLLEPQEQLPPPPLPPPVSQVDAAIGLLMPPLQTPVNLSVFCDHNYTVEDTMHQRKRIHQLEQQVEKLRKKLKTAQQRCRRQERQLEKLKEVVHFQKEKDDVSERGYVILPNDYFEIVEVPA [S4Q] was run?
Answer: 0.114

Question: How did the THAP1 transcriptional activity turn out when MVQKCSAYGCKNRYDKDKPVSFHKFPLTRPSLCKEWEAAVRRKNFKPTKYSSICSEHFTPDCFKRECNNKLLKENAVPTIFLCTEPHDKKEDLLEPQEQLPPPPLPPPVSQVDAAIGLLMPPLQTPVNLSVFCDHNYTVEDTMHQRKRIHQLEQQVEKLRKKLKTAQQRCRRQERQLEKLKEVVHFQKEKDDVSERGYVILPNDYFEIVEVPA [S4K] was run?
Answer: 0.127

Question: MVQMCSAYGCKNRYDKDKPVSFHKFPLTRPSLCKEWEAAVRRKNFKPTKYSSICSEHFTPDCFKRECNNKLLKENAVPTIFLCTEPHDKKEDLLEPQEQLPPPPLPPPVSQVDAAIGLLMPPLQTPVNLSVFCDHNYTVEDTMHQRKRIHQLEQQVEKLRKKLKTAQQRCRRQERQLEKLKEVVHFQKEKDDVSERGYVILPNDYFEIVEVPA [S4M] was tested. Which THAP1 transcriptional activity did it give?
Answer: 0.201

Question: For MVQVCSAYGCKNRYDKDKPVSFHKFPLTRPSLCKEWEAAVRRKNFKPTKYSSICSEHFTPDCFKRECNNKLLKENAVPTIFLCTEPHDKKEDLLEPQEQLPPPPLPPPVSQVDAAIGLLMPPLQTPVNLSVFCDHNYTVEDTMHQRKRIHQLEQQVEKLRKKLKTAQQRCRRQERQLEKLKEVVHFQKEKDDVSERGYVILPNDYFEIVEVPA [S4V], which THAP1 transcriptional activity is on record?
Answer: 0.187

Question: MVQWCSAYGCKNRYDKDKPVSFHKFPLTRPSLCKEWEAAVRRKNFKPTKYSSICSEHFTPDCFKRECNNKLLKENAVPTIFLCTEPHDKKEDLLEPQEQLPPPPLPPPVSQVDAAIGLLMPPLQTPVNLSVFCDHNYTVEDTMHQRKRIHQLEQQVEKLRKKLKTAQQRCRRQERQLEKLKEVVHFQKEKDDVSERGYVILPNDYFEIVEVPA [S4W] was tested. Which THAP1 transcriptional activity did it give?
Answer: 0.171

Question: With MVQRCSAYGCKNRYDKDKPVSFHKFPLTRPSLCKEWEAAVRRKNFKPTKYSSICSEHFTPDCFKRECNNKLLKENAVPTIFLCTEPHDKKEDLLEPQEQLPPPPLPPPVSQVDAAIGLLMPPLQTPVNLSVFCDHNYTVEDTMHQRKRIHQLEQQVEKLRKKLKTAQQRCRRQERQLEKLKEVVHFQKEKDDVSERGYVILPNDYFEIVEVPA [S4R] as the variant, how does the THAP1 transcriptional activity read?
Answer: 0.164

Question: How did the THAP1 transcriptional activity turn out when MVQLCSAYGCKNRYDKDKPVSFHKFPLTRPSLCKEWEAAVRRKNFKPTKYSSICSEHFTPDCFKRECNNKLLKENAVPTIFLCTEPHDKKEDLLEPQEQLPPPPLPPPVSQVDAAIGLLMPPLQTPVNLSVFCDHNYTVEDTMHQRKRIHQLEQQVEKLRKKLKTAQQRCRRQERQLEKLKEVVHFQKEKDDVSERGYVILPNDYFEIVEVPA [S4L] was run?
Answer: 0.241

Question: With MVQGCSAYGCKNRYDKDKPVSFHKFPLTRPSLCKEWEAAVRRKNFKPTKYSSICSEHFTPDCFKRECNNKLLKENAVPTIFLCTEPHDKKEDLLEPQEQLPPPPLPPPVSQVDAAIGLLMPPLQTPVNLSVFCDHNYTVEDTMHQRKRIHQLEQQVEKLRKKLKTAQQRCRRQERQLEKLKEVVHFQKEKDDVSERGYVILPNDYFEIVEVPA [S4G] as the variant, how does the THAP1 transcriptional activity read?
Answer: 0.254

Question: Which THAP1 transcriptional activity does the source give for MVQPCSAYGCKNRYDKDKPVSFHKFPLTRPSLCKEWEAAVRRKNFKPTKYSSICSEHFTPDCFKRECNNKLLKENAVPTIFLCTEPHDKKEDLLEPQEQLPPPPLPPPVSQVDAAIGLLMPPLQTPVNLSVFCDHNYTVEDTMHQRKRIHQLEQQVEKLRKKLKTAQQRCRRQERQLEKLKEVVHFQKEKDDVSERGYVILPNDYFEIVEVPA [S4P] here?
Answer: 0.142

Question: MVQTCSAYGCKNRYDKDKPVSFHKFPLTRPSLCKEWEAAVRRKNFKPTKYSSICSEHFTPDCFKRECNNKLLKENAVPTIFLCTEPHDKKEDLLEPQEQLPPPPLPPPVSQVDAAIGLLMPPLQTPVNLSVFCDHNYTVEDTMHQRKRIHQLEQQVEKLRKKLKTAQQRCRRQERQLEKLKEVVHFQKEKDDVSERGYVILPNDYFEIVEVPA [S4T] was tested. Which THAP1 transcriptional activity did it give?
Answer: 0.966

Question: Which THAP1 transcriptional activity does the source give for MVQYCSAYGCKNRYDKDKPVSFHKFPLTRPSLCKEWEAAVRRKNFKPTKYSSICSEHFTPDCFKRECNNKLLKENAVPTIFLCTEPHDKKEDLLEPQEQLPPPPLPPPVSQVDAAIGLLMPPLQTPVNLSVFCDHNYTVEDTMHQRKRIHQLEQQVEKLRKKLKTAQQRCRRQERQLEKLKEVVHFQKEKDDVSERGYVILPNDYFEIVEVPA [S4Y] here?
Answer: 0.123

Question: Which THAP1 transcriptional activity does the source give for MVQNCSAYGCKNRYDKDKPVSFHKFPLTRPSLCKEWEAAVRRKNFKPTKYSSICSEHFTPDCFKRECNNKLLKENAVPTIFLCTEPHDKKEDLLEPQEQLPPPPLPPPVSQVDAAIGLLMPPLQTPVNLSVFCDHNYTVEDTMHQRKRIHQLEQQVEKLRKKLKTAQQRCRRQERQLEKLKEVVHFQKEKDDVSERGYVILPNDYFEIVEVPA [S4N] here?
Answer: 0.14

Question: How did the THAP1 transcriptional activity turn out when MVQHCSAYGCKNRYDKDKPVSFHKFPLTRPSLCKEWEAAVRRKNFKPTKYSSICSEHFTPDCFKRECNNKLLKENAVPTIFLCTEPHDKKEDLLEPQEQLPPPPLPPPVSQVDAAIGLLMPPLQTPVNLSVFCDHNYTVEDTMHQRKRIHQLEQQVEKLRKKLKTAQQRCRRQERQLEKLKEVVHFQKEKDDVSERGYVILPNDYFEIVEVPA [S4H] was run?
Answer: 0.111
